Laboratory results: the DeepSol protein solubility set

experiment: soluble on expression in E. coli; label from the status in PepcDB or PDB records

**Q.** Which “soluble on expression in E. coli” value does the source give for “MVIGVPKEIKTLENRVALTPGGVESLVRRGHTVLVERGAGEGSGLSDAEYARAGAELVGREEAWGAEMVVKVKEPLPEEYGFLREGLILFTYLHLAADRGLTEAMLRSGVTGIAYETVQLPDGTLPLLVPMSEVAGRMAPQVGAQFLEKPKGGRGVLLGGVPGVAPASVVILGGGTVGTNAAKIALGMGAQVTILDVNHKRLQYLDDVFGGRVITLTATEANIKKSVQHADLLIGAVLVPGAKAPKLVTRDMLSLMKEGAVIVDVAVDQGGCVETIRPTTHAEPTYVVDGVVHYGVANMPGAVPRTSTFALTNQTLPYVLKLAEKGLDALLEDAALLKGLNTHKGRLTHPGVAEAFGLPYTPPEEALRG” here?
**A.** soluble

**Q.** Which “soluble on expression in E. coli” value does the source give for “SLDGAHKMARVWVGILNWSLKHIVGLKYRIIGAENIPDRPAVICAKHQSGWETLALQDIFPPQVYVAKRELFKIPFFGWGLKLVKTIGIDRNNRREANEQLIKQGLVRKNEGYWITIFPEGTRLAPGKRGKYKLGGARMAKMFEMDIVPVALNSGEFWPKNSFLKYPGEITVVICPTIPHASGSEAELMEKCEHLIETQQPLISGAGPFAAKMPSETAEG” here?
**A.** soluble

**Q.** For “MKIHHIGPMGVNPYQRQLAKTERLAAEKAPRDQVEISKEAKELQEAASWEQARQAKLEELRQQIENGAYQVDPRAVAKRMIEYYRNHR”, which “soluble on expression in E. coli” value is on record?
**A.** not soluble

**Q.** For “MNTASLVRSLSRVALRSSQVVRMAAPRHFSQSAKVLSVTPELQQALNREIEAEQQLSSDNLQGAVAPTFAGFQVTNKDAEVRLTKKNGSEDILVVFNVNHSVDMDEGFDDEPSQAVAPVPVAMPPFTVEITKGDQRLCFHLELVPVDDQPDEYDFRVEEFYVAPSAKNGNEDVPSEVYASSGKYIDPDLHDLLFVRYLEERGLDARFCKTLVAYATHYEHSQYVGLLDKIKKFISK”, which “soluble on expression in E. coli” value is on record?
**A.** not soluble

**Q.** Which “soluble on expression in E. coli” value does the source give for “MGTTLEVLRTGPLALVEDLGRPGLAHMGVTRSGAADRRSHTLANRLVANPGESATIEVTFGGFSARVCGGDVAIAVTGADTDPAVNGIPFGTNSIHHVHDGQVISLGAPHSGLRSYLAVRGGIDVTPVLGSRSYDVMSAIGPSPLRPGDVLPVGEHTDEFPELDQAPVAAIAEDVVELQVVPGPRDDWFVDPDILVRTNWLVTNRSDRVGMRLVGMPLEYRNPDRQLPSEGATRGAIQVPPNGFPVILGPDHPVTGGYPVIGVVTEEDIDKLGQVRPGQTVRLHWAYPRRPFETLESGKETAAAKFERQHMDSSTSAA” here?
**A.** soluble

**Q.** For “MSLSQHIRKLDSDVSERLKSQACTVSLASAVREIVQNSVDAHATTIDVMIDLPNLSFAVYDDGIGLTRSDLNILATQNYTSKIRKMNDLVTMKTYGYRGDALYSISNVSNLFVCSKKKDYNSAWMRKFPSKSVMLSENTILPIDPFWKICPWSRTKSGTVVIVEDMLYNLPVRRRILKEEPPFKTFNTIKADMLQILVMHPMISLNVQYTDKLRINTEVLFRSKNITEGLTKHQQMSQVLRNVFGAEGHHHHHH”, which “soluble on expression in E. coli” value is on record?
**A.** soluble

**Q.** With “MIRLAHADDLLILQEIERAAGQAFRALGMDSIADDEPLSIDELNSYATAGRAWVSVDGLDYPVAYLLADIVDGAGHVEQVSVHPDQAHQGLGRELLHAARVWTRGHGMQRQTLSTFRDVPWNAPYYRRLGFDVLDAGSWGPQLAHLMEHEAELGLTRWPRVAMWRPAVPPK” as the sequence, how does the “soluble on expression in E. coli” value read?
**A.** soluble

**Q.** With “MGSDKIHHHHHHMQKLASGEQLMKVNGDTVATQGQLAKLLPLQHIDPQSTDIIDHGAKPRRQLLDWLMFHVEPEFYFAWQYYSRALKQRNTLLKTRRNLSLADLEPWNKMLSDYGEILHSQRLSIVEQWNVYFQNDLSQLLPDLEIELEYSPGFHTEQGLMQDLLNQHQKDIERRYTEYGPHRADLRLKTPFGHADDVLSRGQKKLLIIALKLSQIAMLHASNKETVVLLDDLTAELDLTAQQRLIERLSQLGSQVFMTTLDHASVKKHLHDLSISYQLFSVESGQVSLAAS” as the sequence, how does the “soluble on expression in E. coli” value read?
**A.** not soluble

**Q.** For “MAHHHHHHMSPASLAKSSQDKTAPSTEGTTRFGDSSPPVAAAASPAMYGQPWNTPTTLHSLVESVTRESGEAAAARAGTSKSTVPRLAVSRSLPCSTTVVQETVTNTGRVVSTVATGAAAPSSLLTGTDTPTPLWRSTATTAAVRAEHLRELEDFLEQRGGRGTSMEGRHKVIQKALSLLPVVYPPLAKVAEPMQRYIEDVAASLRRAATEKGRSAAASGERAVRAVRSVFRREDTRAHAGEEAGRGGGKGGARCRLSPCVQERDVELMAVKEQLMQRMNTCEKTEDQFRDFRHLIASVFNTNQQLNLRIEQLEEVLARHRIDLPPASEEMMAFQTSLDGQRSFVPQASTVDGDGDDDSSSGG”, which “soluble on expression in E. coli” value is on record?
**A.** not soluble

**Q.** For “MGSDKIHHHHHHMETLQLRDISETALLPLWARAMETLRPDAIIHDDKALEMYQRLNYDFKRFSNAWLSQLAIAIRTDLIDKLVMDFINAHPQAVIINLGAGFDSRYLRVDNGQIHWFDLDLPNVIAARRLFFSDSDRYRMLEQSLFDVSWLEHAAGESDNCLILAEGVLMYFTEQRIKQFFNDLAERIPHARMLLEMLPHGALGQAHLHEAIGWMNAAFQWTLHNIRRLESWNSHIKVRQEWCILDYHWERWGALSLLAWSPWHRYLFGEKLALLEFD”, which “soluble on expression in E. coli” value is on record?
**A.** not soluble

**Q.** Which “soluble on expression in E. coli” value does the source give for “MKHHHHHHQGKITLYEDRGFQGRHYECSSDHTNLQPYLSRCNSARVDSGCWMLYEQPNYSGLQYFLRRGDYADHQQWMGLSDSVRSCRLIPHSGSHRIRLYEREDYRGQMIEFTEDCSCLQDRFRFNEIHSLNVLEGSWVLYELSNYRGRQYLLMPGDYRRYQDWGATNARVGSLRRVIDFS” here?
**A.** soluble

**Q.** With “MGQWANLKAKVIQLWENTHESISQVGLLGDETGIIKFTIWKNAELPLLEQGESYLLRSVVVGEYNDRFQVQVNKNSSIEKLSEPIEVGLEHHHHHH” as the sequence, how does the “soluble on expression in E. coli” value read?
**A.** not soluble

**Q.** For “MRLLLFRQRNFRNLALEAYRPPPGLSALVGANAQGKTSLLLGIHLALGGEVPLGLADLVRFGEEEAWLHAEVETELGAYRLEHRLGPGGREVLLNGKRVSLRTLWELPGSVLVSPLDLEAVLGPKEERRAYLDRLIARFSRRYAALLSAYEKALRQRNALLKAGGEGLSAWDRELARYGDEIVALRRRFLRRFAPILREVHAALAAKEAGLRLEETAGEGVLRALEASRAEERERGQTLVGPHRDDLVFLLEGRPAHRFASRGEAKTLALALRLAEHRLLGEHHGEPPLLLVDEWGEELDEARRRAVLAYAQALPQAILAGLEAPPGVPVCSVVRGVVLCPGA”, which “soluble on expression in E. coli” value is on record?
**A.** soluble

**Q.** With “MKKSLGARTLAYPTPLFLVGTYDRDSRPNIMAAAWAGICCSQPPSIAVSLRKATYTYRSITERGAFTISIPSRAYVRHADYAGIYSGENEDKFASLGLTPVPGEHVDAPYVGEFPMAIELKLIHQIEIGLHTQFIGEIMDVKVDESCLRDDGLPDINKVDPVIFAPVSREYYAVGEFLAKAFSAGKGLRS” as the sequence, how does the “soluble on expression in E. coli” value read?
**A.** soluble

**Q.** Which “soluble on expression in E. coli” value does the source give for “MARARKGALVQCDPSIKALILQIDAKMSDIVLEELDDTHLLVNPSKVEFVKHELNRLLSKNIYNPMDEEENQ” here?
**A.** soluble

**Q.** For “MGSDKIHHHHHHVVDSLQQWQEVEAVLADLSQASQEHHYRQTHRLVQDYLDRLQLSPREQQGLEPLLKSLERMQAKLEQQVLHIAVFGLVGRGKSSLLNALVGETVFETGAIHGVTTAIATAAWPLTTDEDGVQRLRWSGLGDVQVELIDTPGIDEIDGDQREALAKRVAQQADLILFVVSGDISQLEQDTLTVLHQAHKPLLLVLNKADQYSDRDREAIRNKLADERLRHLISIDEIVTVAAAPRQAEPEYDGDRLVGTKLVSLPPQVEPLRQRIITLLLHEGQSLLALNALLQMAMVDRQVVRRKLQSRDRQAEELIWRFAIAKGMAVAINPISFVDLLGGAAIDVALILQLSQLYDLPIGEGKAIALLRTIAVGMGSLGLGEGLVRVGLSALKGLMGVAAPVSGGLSLGVYVPVALTQAGIGGFATYAIGQVTKAYLANGADWGPEGAGLLTQQILDSLDEAAILQRLRGEIDRRLRLKQL”, which “soluble on expression in E. coli” value is on record?
**A.** not soluble

**Q.** Which “soluble on expression in E. coli” value does the source give for “MSLKYLGLCTDLYELTMAQSYLYEGKTGTAVFSLFVRKLPEKRNFLISAGLETLVERIKNFKFGDEEIKYLKSLGIFKDDFLDYLKDFEFSGNVYAIPEGRIVFQNEPLVQVEAPIPEAQLLETLVINTIQFETMIASKAVRSYLVAKGKKLVDFGFRRAHGLEAGILAARASYIAGFDGTSNVEAGREFGIPVVGTMAHSYVMIFDKEEDAFRAFAKLYPKNAIFLIDTYDTIEAAKKVVDLAKEGVPVVGVRIDSGDIVKLSKEVRKILDENGLKNVRIIVSGGVDEYKIKEWFDRGAPIDAFGVGTKFITSADAPYFDIAYKLVEYEGKPKYKLSPGKKTFPYKRQVYRYYENGKMKYDETAKWESKREGEPLVELVMKNGKLIKELPSLKEIREVVMSELEKLPENYKDITKHYEYEVKILDWEEGHHHHHH” here?
**A.** not soluble

**Q.** For “MGHQVAIYDSRPFVGGKVGSWIDADGNHIEMGLHVFFFNYANLFALMRKVGAFENLLPKAHTHTFINKGGEVGELDFRFPIGAPFNGLKAFFTTSQLTWLDKLQSALALGTSPLVRGILDYEGAMKIIRALDRISFADWFRSHGGSEGSLKRMWNPIAYALGFIDTENISARCMLTVFQMFAAKTEASKLNLLAGSPAEYLHKPILDYIQARGATLHLQRRVREIEYTETNGQTVVTGLQIADGDAVERVEADVYLAACDVPGIQRLLPEAWRKWSEFDNIYKLDAVPVATVQLRFDGWVTELVDREKRHQLDHATGLDNLLYTADADFSCFTDLALSSPKDYYRKGQGSLLQCVLTPGDPFIAMKNEDIAQHVLKQVHELFPSSRDLNMTWSNVVKLAQSLYREAPGMDPFRPDQKTPIANFFLAGSYTQQDYIDSMEGATISGRRAAKAMLEAQAIAALEHHHHHH”, which “soluble on expression in E. coli” value is on record?
**A.** not soluble

**Q.** With “MADEQEIMCKLESIKEIRNKTLQMEKIKARLKAEFEALESEERHLKEYKQEMDLLLQEKMAHVEELRLIHADINVMENTIKQSENDLNKLLESTRRLHDEYKPLKEHVDALRMTLGLQRLPDLCEEEEKLSLDYFEKQKAEWQTEPQEPPIPESLAAAAAAAQQLQVARKQDTRQTATFRQQPPPMKACLSCHQQIHRNAPICPLCKAKSRSRNPKKPKRKQDE” as the sequence, how does the “soluble on expression in E. coli” value read?
**A.** not soluble

**Q.** With “MGFGFRHILTEREFTRSFAIQRKLKVIAEEIKADVIITHDTGCTTTFEKNQWIGKAHGMYYPVAVMSDVMFSALACGAHPFKVVQLYWNCSNYEPLLEKMGITNWRELKKEWEDTVKYIAELEKQGKYDELLEFFKEYDLYEPYSKTSDGFKLRKSATADLPLFKS” as the sequence, how does the “soluble on expression in E. coli” value read?
**A.** not soluble

**Q.** For “MGSDKIHHHHHHMLLRKDEVFYIDLPRKIEKEEKVKEEKTKENAAEEIQRIEKMREKILSEAQEEARKIIEGARKDAEEILSNASSEAEALKLEAKKVLEEAKTMKNDFQKYILALKEKIQKQVNQRIEEILPELLDILRILFKKILEKEMDESTVERKLRSALSKVVGIKNVKIRINPEDAKKLDLSEVSKETLIPDPNVERGGVIVETDFGILDKTFSHQWELVEDIFEEVVGFEGHPERAEKEVE”, which “soluble on expression in E. coli” value is on record?
**A.** not soluble

**Q.** With “MNVSTSTFQTRRRRLKKVEEEENAATLQLGQEFQLKQINHQGEEEELIALNLSEARLVIKEALVERRRAFKRSQKKHKKKHLKHENANDETTAVEDEDDDLDEDDVNADDDDFMHSETREKELESIDVLLEQTTGGNNKDLKNTMQYLTNFSRFRDQETVGAVIQLLKSTGLHPFEVAQLGSLACDTADEAKTLIPSLNNKISDDELERILKELSNLETLY” as the sequence, how does the “soluble on expression in E. coli” value read?
**A.** soluble

**Q.** Which “soluble on expression in E. coli” value does the source give for “MFRMPIVTMERVDSFSAAHRLHSEKLSDAENKETFGKCNNSNGHGHNYVWKVKLRGEVDPTSGMVYDLAKLKKEMSLVLDTVDHRNLDKDVEFFKTTVSTSENVAIYMFEKLKSVMSNPSVLYKVTIEETPKNIFTYKGS” here?
**A.** soluble
